In patent publication US20240226163A1:

What was measured:
Assay in all cases: flow cytometry, peptide-pulsed T2 cells, 100 nM antibody
[1] = biological target: HLA-A*02:01 presenting PAPPA2 307-316 peptide (…) (human)
[2] = biological target: HLA-A*02:01 presenting MAGE-A10 254-263 peptide (…) (human)
[3] = biological target: HLA-A*02:01 presenting THBS3 116-125 peptide (…) (human)
[4] = biological target: HLA-A*02:01 presenting MAGE-A4 230-239 peptide (…) (human)
[5] = biological target: HLA-A*02:01 presenting FAT4 4053-4062 peptide (…) (human)
[6] = biological target: HLA-A*02:01 presenting CELSR3 1594-1603 peptide (…) (human)
[7] = biological target: HLA-A*02:01 presenting SCL25A19 111-120 peptide (…) (human)
[8] = biological target: HLA-A*02:01 presenting CCDC36 417-426 peptide (…) (human)
[9] = biological target: HLA-A*02:01 presenting LPIN2 823-832 peptide (…) (human)
[10] = biological target: HLA-A*02:01 presenting MAGE-A8 232-241 peptide (…) (human)

Antibody Binding Ratio (pulsed cell MFI/Unpulsed cell MFI) [1]: 0.9
Antibody Binding Ratio (pulsed cell MFI/Unpulsed cell MFI) [2]: 1.3
Antibody Binding Ratio (pulsed cell MFI/Unpulsed cell MFI) [3]: 1
Antibody Binding Ratio (pulsed cell MFI/Unpulsed cell MFI) [4]: 4.3
Antibody Binding Ratio (pulsed cell MFI/Unpulsed cell MFI) [5]: 1.1
Antibody Binding Ratio (pulsed cell MFI/Unpulsed cell MFI) [6]: 0.9
Antibody Binding Ratio (pulsed cell MFI/Unpulsed cell MFI) [7]: 0.9
Antibody Binding Ratio (pulsed cell MFI/Unpulsed cell MFI) [8]: 1.1
Antibody Binding Ratio (pulsed cell MFI/Unpulsed cell MFI) [9]: 0.9
Antibody Binding Ratio (pulsed cell MFI/Unpulsed cell MFI) [10]: 3.3
Substance: mAb1097 (mIgG2a Isotype Control) (antibody)
